Measurements: patent US20210309745A1 (TAYU HUAXIA BIOTECH MEDICAL GROUP, published 2021)

Biological target: hPD-L1 (antigen of the Fortebio Octet assay) (human, UniProt Q9NZQ7 19-238, limits assumed)
Experiment: BLI, Fortebio Octet; format not stated
Description: The anti-hPD-L1 scFv-hFc Wt and scFv-hFc Mt antibodies were identified by SDS Page Gel […]. […] The binding affinities of the scFv-hFc antibodies to hPD-L1, as compared to that of the parental antibody were examined by FACS and the results are shown in FIG. 7. […] The binding affinities and kinetics of the scFv-hFc antibodies (scFv-hFc Wt and scFv-hFc Mt) to hPD-L1, as compared to that of the parental antibody (anti-PD-L1 IgG1), were further analyzed using the Fortebio Octet system.

hPD-L1 (antigen of the Fortebio Octet assay), sequence (Q9NZQ7 19-238 limits assumed): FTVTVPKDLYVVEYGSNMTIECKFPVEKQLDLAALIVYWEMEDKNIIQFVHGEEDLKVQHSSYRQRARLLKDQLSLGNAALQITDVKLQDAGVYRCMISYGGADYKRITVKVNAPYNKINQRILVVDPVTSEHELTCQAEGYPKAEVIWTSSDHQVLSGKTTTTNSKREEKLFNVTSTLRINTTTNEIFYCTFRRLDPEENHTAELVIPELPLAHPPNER

- koff: 2.72e-05 s⁻¹
B1: anti-PD-L1 IgG1 (parental antibody of Example 3) (antibody, V domains shown)
VH: EVQLQQSGAELVKPGASVKLSCTASGFNIKDTYMYWVKQRPEQGLECIGRIDPANDNTKYDPKFQGKATITADTSSNTAYVQLASLTSEDTAVYYCARAKNLLNYFDYWGQGTTLTVSS
VL: DIQMTQSPSSLSASLGERVTLSCRASQEISGYLSWLQQKPDGTIKRLIYATSTLDSGVPKRFSGSRSGSDYSLTISSLESEDFADYYCLQYAIYPLTFGAGTKLELKR
notes: IgG1; also called parental control antibody
